The experiment addresses T1, SALT TOLERANCE HOMOLOG2 (STH2) (Arabidopsis thaliana, UniProt Q9LQZ7 1-331, limits assumed).
T1 construct: also called G1482
T1 sequence: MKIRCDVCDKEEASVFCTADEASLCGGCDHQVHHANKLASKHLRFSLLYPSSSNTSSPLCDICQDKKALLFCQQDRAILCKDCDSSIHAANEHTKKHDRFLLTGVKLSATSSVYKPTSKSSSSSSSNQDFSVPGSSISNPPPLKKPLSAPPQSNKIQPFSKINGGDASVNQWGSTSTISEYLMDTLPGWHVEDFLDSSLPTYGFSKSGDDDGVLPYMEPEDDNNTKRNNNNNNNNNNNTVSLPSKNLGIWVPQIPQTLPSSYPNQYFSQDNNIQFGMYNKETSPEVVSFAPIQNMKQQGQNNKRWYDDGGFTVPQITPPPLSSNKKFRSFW
In words: in vitro and protoplast based studies (methods not described).

The text below walks through data of patent publication US20200181634A1 (MENDEL BIOTECHNOLOGY, published 2020).

B1: G1988 (other)
chain: MVSFCELCGAEADLHCAADSAFLCRSCDAKFHASNFLFARHFRRVICPNCKSLTQNFVSGPLLPWPPRTTCCSESSSSSCCSSLDCVSSSELSSTTRDVNRARGRENRVNAKAVAVTVADGIFVNWCGKLGLNRDLTNAVVSYASLALAVETRPRATKRVFLAAAFWFGVKNTTTWQNLKKVEDVTGVSAGMIRAVESKLARAMTQQLRRWRVDSEEGWAENDNV
notes: also called B-box zinc finger transcription factor G1988
For B1, the binding result was “binds”.
